Assay results published in the supplement of paper PMC10567573.

B1: HDAC6 (parent)
chain: ACAQLATGAACRLVEAVLSGEVLN
B2: SASS6 (parent)
chain: QKELQDVGQSLRIKEQEVCKLQEQ

Variants of: B1
Test: protein stability index of a GFP-peptide fusion (GPS, HEK-293T) (PSI 1-6); higher = more stable
Settings: c terminus: a fixed tail appended
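Also: lentivirally expressed fusions sorted by FACS into six bins by GFP to DsRed ratio, PSI derived from sequencing read proportions per bin multiplied by bin number.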

Variant | protein stability index
ACAQLATGAACRLCEAVLSGEVLN | 3.54
ACAQLATGAACRLDEAVLSGEVLN | 2.53
ACAQLATGAACRLGEAVLSGEVLN | 2.17
ACAQLATGAACRLHEAVLSGEVLN | 2.56
ACAQLATGAACRLKEAVLSGEVLN | 1.97
ACAQLATGAACRLMEAVLSGEVLN | 3.28
ACAQLATGAACRLNEAVLSGEVLN | 3.78
ACAQLATGAACRLQEAVLSGEVLN | 2.74
ACAQLATGAACRLSEAVLSGEVLN | 2.15
ACAQLATGAACRLTEAVLSGEVLN | 1.75
ACAQLATGAACRLVHAVLSGEVLN | 4.01
ACAQLATGAACRLVNAVLSGEVLN | 2.52
ACAQLATGAACRLVPAVLSGEVLN | 1.05
ACAQLATGAACRLVEDVLSGEVLN | 2.78
ACAQLATGAACRLVELVLSGEVLN | 2.77
ACAQLATGAACRLVEPVLSGEVLN | 2.28
ACAQLATGAACRLVERVLSGEVLN | 2.18
ACAQLATGAACRLVEYVLSGEVLN | 3.51
ACAQLATGAACRLVEADLSGEVLN | 3.56
ACAQLATGAACRLVEAHLSGEVLN | 2.75
ACAQLATGAACRLVEAPLSGEVLN | 2.5
ACAQLATGAACRLVEAQLSGEVLN | 1.85
ACAQLATGAACRLVEASLSGEVLN | 1.93
ACAQLATGAACRLVEATLSGEVLN | 2.04
ACAQLATGAACRLVEAVASGEVLN | 1.69
ACAQLATGAACRLVEAVCSGEVLN | 1.45
ACAQLATGAACRLVEAVDSGEVLN | 3.68

Variant | protein stability index
ACAQLATGAACRLVEAVHSGEVLN | 2.47
ACAQLATGAACRLVEAVKSGEVLN | 2.1
ACAQLATGAACRLVEAVMSGEVLN | 3.05
ACAQLATGAACRLVEAVPSGEVLN | 3.73
ACAQLATGAACRLVEAVQSGEVLN | 2.2
ACAQLATGAACRLVEAVRSGEVLN | 2.29
ACAQLATGAACRLVEAVSSGEVLN | 2.04
ACAQLATGAACRLVEAVTSGEVLN | 2.02
ACAQLATGAACRLVEAVYSGEVLN | 3.82
ACAQLATGAACRLVEAVLAGEVLN | 4.12
ACAQLATGAACRLVEAVLPGEVLN | 2.98
ACAQLATGAACRLVEAVLSDEVLN | 2.25
ACAQLATGAACRLVEAVLSEEVLN | 1.43
ACAQLATGAACRLVEAVLSFEVLN | 3.97
ACAQLATGAACRLVEAVLSIEVLN | 2.15
ACAQLATGAACRLVEAVLSLEVLN | 3.07
ACAQLATGAACRLVEAVLSPEVLN | 2.07
ACAQLATGAACRLVEAVLSREVLN | 2.86
ACAQLATGAACRLVEAVLSSEVLN | 2.89
ACAQLATGAACRLVEAVLSGCVLN | 2.87
ACAQLATGAACRLVEAVLSGDVLN | 2.6
ACAQLATGAACRLVEAVLSGIVLN | 3.07
ACAQLATGAACRLVEAVLSGKVLN | 1.09
ACAQLATGAACRLVEAVLSGNVLN | 3.96
ACAQLATGAACRLVEAVLSGWVLN | 2.67
ACAQLATGAACRLVEAVLSGYVLN | 3.01
ACAQLATGAACRLVEAVLSGEALN | 3.65

Variant | protein stability index
ACAQLATGAACRLVEAVLSGEDLN | 2.37
ACAQLATGAACRLVEAVLSGEELN | 1.84
ACAQLATGAACRLVEAVLSGEFLN | 2.71
ACAQLATGAACRLVEAVLSGEGLN | 2.44
ACAQLATGAACRLVEAVLSGEHLN | 4.01
ACAQLATGAACRLVEAVLSGEKLN | 1.01
ACAQLATGAACRLVEAVLSGELLN | 2.09
ACAQLATGAACRLVEAVLSGEMLN | 3.31
ACAQLATGAACRLVEAVLSGEPLN | 2.42
ACAQLATGAACRLVEAVLSGESLN | 1.36
ACAQLATGAACRLVEAVLSGEYLN | 3.8
ACAQLATGAACRLVEAVLSGEVAN | 2.22
ACAQLATGAACRLVEAVLSGEVDN | 2.49
ACAQLATGAACRLVEAVLSGEVEN | 2.83
ACAQLATGAACRLVEAVLSGEVHN | 3.51
ACAQLATGAACRLVEAVLSGEVKN | 1.7
ACAQLATGAACRLVEAVLSGEVMN | 4.41
ACAQLATGAACRLVEAVLSGEVNN | 1.54
ACAQLATGAACRLVEAVLSGEVPN | 1.96
ACAQLATGAACRLVEAVLSGEVQN | 1.05
ACAQLATGAACRLVEAVLSGEVVN | 1.26
ACAQLATGAACRLVEAVLSGEVWN | 2.42
ACAQLATGAACRLVEAVLSGEVYN | 3.97
ACAQLATGAACRLVEAVLSGEVLD | 1.87
ACAQLATGAACRLVEAVLSGEVLF | 1.85
ACAQLATGAACRLVEAVLSGEVLK | 2.61

Variants of: B2
Test: as above
Settings: c terminus: a fixed tail appended

Variant | protein stability index
CKELQDVGQSLRIKEQEVCKLQEQ | 4.99
EKELQDVGQSLRIKEQEVCKLQEQ | 5.94
FKELQDVGQSLRIKEQEVCKLQEQ | 4.25
HKELQDVGQSLRIKEQEVCKLQEQ | 5.51
KKELQDVGQSLRIKEQEVCKLQEQ | 5.22
LKELQDVGQSLRIKEQEVCKLQEQ | 4.46
MKELQDVGQSLRIKEQEVCKLQEQ | 4.5
NKELQDVGQSLRIKEQEVCKLQEQ | 5.75
PKELQDVGQSLRIKEQEVCKLQEQ | 4.91
SKELQDVGQSLRIKEQEVCKLQEQ | 4.63
TKELQDVGQSLRIKEQEVCKLQEQ | 4.55
VKELQDVGQSLRIKEQEVCKLQEQ | 4.88
YKELQDVGQSLRIKEQEVCKLQEQ | 4.78
QAELQDVGQSLRIKEQEVCKLQEQ | 4.58
